In patent US20200199244A1 (published 2020):

Target: human CD40 (human, UniProt P25942 21-277)
Experiment: cell-based or functional assay

Sequence of human CD40 (P25942 21-277 limits assumed): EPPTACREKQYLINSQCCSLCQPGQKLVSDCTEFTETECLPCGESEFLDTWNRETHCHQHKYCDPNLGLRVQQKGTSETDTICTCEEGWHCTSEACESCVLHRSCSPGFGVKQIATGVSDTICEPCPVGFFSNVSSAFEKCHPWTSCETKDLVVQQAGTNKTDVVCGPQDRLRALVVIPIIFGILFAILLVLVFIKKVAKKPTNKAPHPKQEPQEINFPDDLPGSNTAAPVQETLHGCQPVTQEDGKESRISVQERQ

| hIZCD40L-driven Human B Cell Proliferation EC50 [µM] | CHO-hCD40L-driven Human B Cell Proliferation EC50 [µM] | T-B cell MLR EC50 [µM] | CHO-hCD40L-driven DC Activation IL-12 EC50 [µM] | Binder |
| --- | --- | --- | --- | --- |
| 0.0002 | 0.041 | 0.031 | 0.011 | BMS3h-56-215 (other) VH: EVQLLESGGGLVQPGGSLRLSCAASGFTFRDYEMWWVRQAPGKGLERVSAINPHGSLTYYADSVKGRFTISRDNSKNTLYLQMNSLRAEDTAVYYCAKLPFTFDDWGQGTLVTVSS |
| 0.00017 | 0.026 | 0.021 | 0.0126 | BMS3h-56-244 (other) VH: EVQLLESGGGLVQPGGSLRLSCAASGFTFRDYEMWWVRQAPGKGLERVSAINPWGGLTYYADSVKGRFTISRDNSKNTLYLQMNSLRAEDTAVYYCAKLPFTFDDWGQGTLVTVSS |
| 0.0001 | 0.006 | 0.00525 | 0.0007 | BMS3h-56-206 (other) VH: EVQLLESGGGLVQPGGSLRLSCAASGFTFRDYEMWWVRQAPGKGLERVSAINPQGTRTYYADSVKGRFTISRDNSKNTLYLQMNSLRAEDTAVYHCAKLPMFFEDWGQGTLVTVSN |
| 0.0005 | 0.026 | 0.047 | 0.018 | BMS3h-56-224 (other) VH: EVQLLESGGGLVQPGGSLRLSCAASGFTFRDYEMWWVRQAPGKGLERVSAINPWGQLTYYADSVKGRFTISRDNSKNTLYLQMNSLRAEDTAVYYCAKLPFTFEDWGQGTLVTVSS |
| 0.00011 | 0.018 | 0.0135 | 0.0058 | BMS3h-56-239 (other) VH: EVQLLESGGGLVQPGGSLRLSCAASGFTFRDYEMWWVRQAPGKGLERVSAINPWGSLTYYADSVKGRFTISRDNSKNTLYLQMNSLRAEDTAVYYCAKLPFTFDDWGQGTLVTVSS |
| 0.0004 | – | – | – | BMS3h-56-253 (other) VH: EVQLLESGGGLVQPGGSLRLSCAASGFTFRDYEMWWVRQAPGKGLERVSAINPAGGYTYYADSVKGRFTISRDNSKNTLYLQMNSLRAEDTAVYHCAKLPFTFEDWGQGTLVTVSS |
| 0.00027 | 0.037 | 0.042 | 0.0073 | BMS3h-56-232 (other) VH: EVQLLESGGGLVQPGGSLRLSCAASGFTFRDYEMWWVRQAPGKGLERVSAINPWGSHTYYADSVKGRFTISRDNSKNTLYLQMNSLRAEDTAVYYCAKLPFTFDDWGQGTLVTVSS |
| 0.0001 | 0.013 | 0.016 | 0.0094 | BMS3h-56-217 (other) VH: EVQLLESGGGLVQPGGSLRLSCAASGFTFRDYEMWWVRQAPGKGLERVSAINPWGSLTYYADSVKGRFTISRDNSKNTLYLQMNSLRAEDTAVYYCAKLPFTFEDWGQGTLVTVSS |
| 0.00015 | 0.0135 | 0.0142 | 0.0088 | BMS3h-56-243 (other) VH: EVQLLESGGGLVQPGGSLRLSCAASGFTFRDYEMWWVRQAPGKGLERVSAINPWGGFTYYADSVKGRFTISRDNSKNTLYLQMNSLRAEDTAVYYCAKLPFTFEDWGQGTLVTVSS |
| 0.00036 | – | – | – | BMS3h-56-248 (other) VH: EVQLLESGGGLVQPGGSLRLSCAASGFTFRDYEMWWVRQAPGKGLERVSAINPYGNLTYYADSVKGRFTISRDNSKNTLYLQMNSLRAEDTAVYYCAKLPFTFDDWGQGTLVTVSS |
| 0.00024 | 0.034 | 0.0238 | 0.0232 | BMS3h-56-246 (other) VH: EVQLLESGGGLVQPGGSLRLSCAASGFTFRDYEMWWVRQAPGKGLERVSAINPWGTLTYYADSVKGRFTISRDNSKNTLYLQMNSLRAEDTAVYYCAKLPFTFEDWGQGTLVTVSS |

The remaining lines, values behind:

| Binder | hIZCD40L-driven Human B Cell Proliferation EC50 [µM] | CHO-hCD40L-driven Human B Cell Proliferation EC50 [µM] | T-B cell MLR EC50 [µM] | CHO-hCD40L-driven DC Activation IL-12 EC50 [µM] |
| --- | --- | --- | --- | --- |
| BMS3h-43-1 (other) VH: EVQLLESGGGLVQPGGSLRLSCTASGFTFNMYEMSWVRQAPGKGLEWVSGISRRGFTTYYADSVKGRFTISRDNSKNTLYLQMNSLRAEDTAVYYCAKEPITYDLRYARFDYSGQGTLVTVSS | 0.053 | – | – | – |
| BMS3h-43-5 (other) VH: EVQLLESGGGLVQPGGSLRLSCTASGFTFNTYEMSWVRQAPGKGLEWVSGIGRRGFTTYYADSVKGRFTISRDNSKNTLYLQMNSLRAEDTAVYYCAKEPITYDLRYARFDYSGQGTLVTVSS | 0.18 | – | – | – |
| BMS3h-43-11 (other) VH: EVQLLESGGGLVQPGGSLRLSCTASGFTFNMYEMSWVRKAPGKGLEWVSGISRHGFTTYYADSVKGRFTISRDNSKNTLYLQMNSLRAEDTAVYYCAKEPITYDMRYARFDYWGQGTLVTVSS | 0.03 | – | – | – |
| BMS3h-43-3 (other) VH: EVQLLESGGGLVQPGGSLRLSCTASGFTFNMYEMSWVRQAPGKGLEWVSGISRRGFTTYYADSVKGRFTISRDNFKNTLYLQMNSLRAEDTAVYYCAKEPITYDMRYARFDYGGQGTLVTVSS | 0.087 | – | – | – |
| BMS3h-41-1 (other) VH: EVQLLESGEGLVQPGGSLRLSCAASGFTFTEHEMIWVRQAPGKGLEWVSSISGNGANTYYADSVKGRFTISRDNSKNTLYLQMNSLRPEDTAVYYCAKEPLRFDYWGQGTLVTVSS | 0.104 | – | – | – |
| BMS3h-41-9 (other) VH: EVQLLEPGGGLVQPGGSLRLSCAASGFTFTEYEMIWVRKAPGKGMEWVSSISGNGANTYYADSVKGRFTISRDNSKNTLYLQMNSLRPEDTAVYYCAKEPLRFDDWGQGTLVTVSS | 0.148 | – | – | – |
| BMS3h-41-13 (other) VH: EVQLLESAGGLVQPGGSLRLSCAASGFTFAEYEMIWVRQAPGKGLEWVSSISGNGANTYYADSVKGRFTISRDNSKNTLYLQMNSLRAEDTAVYYCAKEPLRFDYWGQGALVTVSS | 0.208 | – | – | – |
| BMS3h-41-2 (other) VH: EVQLLESGGGLVQPGGSLRLSCAASGSTFTEYEMIWVRQAPGKGLEWISSISGNGANTYYADSVKGRFTISRDNSKNTLYLQMNSLRAEDTAVYFCAKEPLRFDYRGQGTLVTVSS | 0.047 | – | – | – |
| BMS3h-38-235 (other) VH: EVQLLASGGGLVQPGGSLRLSCAASGFTFEEEEMIWVRQAPGKGLEWVSAISRNGYSTYYADSVKGRFTISRDNSKNTLYLQMNSLRAEDTAVYYCGKEPFRYDYWGQGTLVTVSS | 0.0004 | – | – | – |
| BMS3h-38-238 (other) VH: EVQLLASGGGLVQPGGSLRLSCAASGFTFEEEEMIWVRQAPGKGLEWVSAISRSGYSTYYADSVKGRFTISRDNSKNTLYLQMNSLRAEDTAVYYCGKEPFRYDYWGQGTLVTVSS | 0.0007 | – | – | – |
| BMS3h-38-3 (other) VH: EVQLLASGGGLVQPGGSLRLSCAASGFTFEEEEMIWVRQAPGKGLEWISAISGSGGSTYYADSVKGRFTISRDNSKNTLYLQMNSLRAEDTAVYYCGKEPFRFDYWGQGTLVTVSS | 0.01 | – | – | – |
| BMS3h-38-237 (other) VH: EVQLLASGGGLVQPGGSLRLSCAASGFTFEEEEMIWVRQAPGKGLEWVSAISRGGWSTYYADSVKGRFTISRDNSKNTLYLQMNSLRAEDTAVYYCGKEPFRYDYWGQGTLVTVSS | 0.0004 | – | – | – |
| BMS3h-56-1 (other) VH: EVQLLESGGGLVQPGGSLRLSCAASGFTFRDYEMWWVRQAPGKGLERVSAINPQGTRTYYADSVKGRFTISRDNSKNTLYLQMNSLRAEDTAVYYCAKLPFTFEDWGQGTLVTVSS | 0.007 | – | – | – |
| BMS3h-56-2 (other) VH: EVQLLESGGGLVQPGGSLRLSCAASGFTFRDYEMWWVRQAPGKGLERVSAINPQGTRTYYADSVKGRFTISRDNSKNTLYLQMNSLRAEDTAVYYCAKLPFTFDDWGQGTLVTVSS | 0.003 | 0.326 | 0.276 | – |
| BMS3h-56-202 (other) VH: EVQLLESGGGLVQPGGSLRLSCAASGFTFRDYEMWWVRQAPGKGLERVSAINPQGTRTYYADSVKGRFTISRDNSKNTLYLQMNSLRAEDTAVYYCAKLPTYFSDRGQGTLVTVSS | 0.0006 | 0.039 | 0.05 | 0.0029 |
| BMS3h-56-203 (other) VH: EVQLLESGGGLVQPGGSLRLSCAASGFTFRDYEMWWVRQAPGKGLERVSAINPQGTRTYYADSVKGRFTISRDNSKNTLYLQMNSLRAEDTAVYYCAKLPFFFEEWGQGTLVTVSS | 0.00045 | 0.051 | 0.052 | 0.0037 |
| BMS3h-56-201 (other) VH: EVQLLESGGGLVQPGGSLRLSCAASGFTFRDYEMWWVRQAPGKGLERVSAINPQGTRTYYADSVKGRFTISRDNSKNTLYLQMNSLRAEDTAVYYCAKLPFYFQEWGQGTLVTVSS | 0.00012 | 0.011 | 0.00725 | 0.00093 |
